Target: human Bcl-xL (residues 1-209, lacking the C-terminal hydrophobic tail) (human, UniProt Q07817-1 1-209, 15N-labelled where it was the observed protein)
Test: NMR titration; 15N-Bcl-xL titrated with unlabeled cytochrome c up to Bcl-xL:cytochrome c 1:10, 1H-15N HSQC; Kd from weighted average chemical shift variations; 300 K; 50 mM sodium phosphate pH 7.3, 150 mM NaCl, 1 mM DTT, 10% D2O
Details: both partners purified

human Bcl-xL (residues 1-209, lacking the C-terminal hydrophobic tail), sequence (Q07817 1-209): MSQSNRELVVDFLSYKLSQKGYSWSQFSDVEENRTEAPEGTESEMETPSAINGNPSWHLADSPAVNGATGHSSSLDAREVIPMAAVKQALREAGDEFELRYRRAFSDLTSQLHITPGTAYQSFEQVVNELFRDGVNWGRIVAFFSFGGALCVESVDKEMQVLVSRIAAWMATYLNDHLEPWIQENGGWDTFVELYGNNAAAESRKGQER

B1: human cytochrome c (natural protein)
chain: not shown
modifications: heme, iron(II) (reduced) form; 15N-labelled where it was the observed protein
notes: cytochrome c, human, full length; also called reduced cytochrome c; source: expressed and purified as reported in the literature [36]; unlabeled and 15N-labeled form
Binder B1 has a Kd of 1000 to 3000 µM.
